Measurements: the nanobody polyreactivity screen of Harvey et al. (2022)

Test: yeast display, Sf9 membrane polyspecificity reagent, FACS + sequencing; frameworks hold sequencing errors
How it was run: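 Galactose-induced (36–48 hours) yeast carrying a synthetic nanobody display library were exposed to 10% biotinylated, detergent-solubilized Sf9 membrane reagent at 4 °C for 1 hour. FACS followed streptavidin microbead enrichment, using low and high (top ~1%) gates for expression (anti-HA) and reagent binding (streptavidin). Colony PCR, MiSeq 2 × 250 sequencing and CDR-length filtering followed. Labels for polyreactivity reflect the gate of origin.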

Sequence | polyreactivity (PSR sort gate)
QVQLVESGGGLVQAGGSLRLSCAASGSTFYIYAMGWYRQAPGKERELVAVITRRGGSTSYADSVKGRFTISRDNAKNTVYLQMNSLKPEDTAVYYCAAKRTWPDVKYIRYGYWGQGAQVTVSS | high polyreactivity
QVQLVESGGGLVQAGGSLRLSCAASGSTFYIYAMVWYRQAPGKERELVAAITGTGGSTYYADSVKGRFTISRDNAKNSVYLQMNSLKPEDTAVYYCAVGFGYYYKYGYWGQGTQVTVSS | low polyreactivity
QVQLVESGGGLVQAGGSLRLSCAASGSTFYKNAMGWNRQAPGKERELVASISRSGGSTSYADSVKGRFTISRDNAKNTVYLQMNSLKPEDTAVYYCAATWRQHPGSMGYWGQGTQVTVSS | high polyreactivity
QVQLVESGGGLVQAGGSLRLSCAASGSTFYKNAMGWYRQAPGKERELVAVINASGDSTYYADSVKGRFTISRDNAKNTVYLQMNSLKPEDTAVYYCAADHRGEYDYWGQGTQVTVSS | low polyreactivity
QVQLVESGGGLVQAGGSLRLSCAASGSTFYKYAMGWSRQAPGKERELVASITGGTRTYYADSVKGRFTISRDNAKNTVYLQMNSLKPEDTAVYYCNVVGGRYLYSAYDYWGQGTQVTVSS | low polyreactivity
QVQLVESGGGLVQAGGSLRLSCAASGSTFYKYAMGWYRQAPGIEPELVAAISRGGSTYYADSVKGRFTISRDNAKNTVYLQMNSLKPEDTAVYYCAAETVSYYSKYDYWGQGTQVTVSS | low polyreactivity
QVQLVESGGGLVQAGGSLRLSCAASGSTFYLNAMGWYRQAPGKERELVATKNSSGSTYNADSVKGRFTISRDNAKNTVYLQMNILKPEDTAVYYCNAYGSDRLSLDDYWGQGTQVTVSS | low polyreactivity
QVQLVESGGGLVQAGGSLRLSCAASGSTFYLNVMGWYRQAPGKERELVAAISSGDGSTYYADSVKGRFTISRDNAKNTVYLQMNSLKPEDTAVYYCAAEPDTEVDYDYWGQGTQVTVSS | low polyreactivity
QVQLVESGGGLVQAGGSLRLSCAASGSTFYPNAKGWYRQAPGKDREFVAASSTSAGRTYYADSVKGRFTISRDNAKKTVYLQINSLKPEDTAVYYCNARYWVYYVYEYDSWGQGTQVTVSS | low polyreactivity
QVQLVESGGGLVQAGGSLRLSCAASGSTFYPNAMGWYRQAPGKERELVAAISRGTRTKYADSVKGRFTISRDNAMNTVYLQMNSLKPEDTAVYYCAADTGTGLDWGQGTQVTVSS | high polyreactivity
QVQLVESGGGLVQAGGSLRLSCAASGSTFYPNAMGWYRQAPGKERELVAAITGGGSTTYADSVKGRFTISRDNAKNTVYLQMNSLKQEDTAVYYCNTDGPRYARPYDSWGQGTQVTVSS | low polyreactivity
QVQLVESGGGLVQAGGSLRLSCAASGSTFYPTYAMGWYRQAPGKERELVATITGSGGSTYYADSVKGRFTISRDNAKNTVYLQMNSLKPEDTAVYYCAADRWYSRYTRYGYWGQGTQVTVSS | low polyreactivity
QVQLVESGGGLVQAGGSLRLSCAASGSTFYPYAKGWYRQAPRKERELVATITNSGGSTYYADSVKGRFTISRDNAKNTVYLQMNSLKPEDTAVYYCARVRSRNTGYYYWGQGTQVTVSS | high polyreactivity
QVQLVESGGGLVQAGGSLRLSCAASGSTFYPYAMGWYRQAPGKEREFVAGISRSGGTTYYADSLKGRFTISRDNAKNTVYLQMNSLKPEDTAVYYCAVQIPYVYWSYDYWGQGTEVTVSS | low polyreactivity
QVQLVESGGGLVQAGGSLRLSCAASGSTFYPYAMGWYRQAPGKERELVAAITTRGRTYYGDSVKGRFTISRDNAKYTVYLQMNSLKPEDTAVYYCNARRYFSRDTSGYNYWGQGTQVTVSS | high polyreactivity
QVQLVESGGGLVQAGGSLRLSCAASGSTFYPYVMGWYRQAPGKERELVAGISYRGGITYYADSVKGRFTISRDYAKNTVYLQMNSLKPEDTAVYYCAADYWSVYLARKMDYWGQGTQVTVSS | low polyreactivity
QVQLVESGGGLVQAGGSLRLSCAASGSTFYRNAMGWYRQAPGKERELVAGISRRGGSTYYADSVKGRFTISRDNAKNTVYLQMNSLKPEDTAVYYCNADYPGIPHNDYWGQGTQVTVSS | low polyreactivity
QVQLVESGGGLVQAGGSLRLSCAASGSTFYRNVMGWYRQAPGKERELVAAISSGGSTYYADSVKGRFTISRDNAKNTVYLQMNSLKPEDTAVYYCARRLTREYDYWGQGTQVTVSS | low polyreactivity
QVQLVESGGGLVQAGGSLRLSCAASGSTFYRYALGWYRQAPGKERELVAAISRSGGNTFYADSVKGRFTISRDNAKNTVYLQMNRLKPEDTAVYYCAALRSWYAQTSGMDYWGQGTHVTVSS | high polyreactivity
QVQLVESGGGLVQAGGSLRLSCAASGSTFYRYAMGWYRQAPGKERELVAAISSDGTTYYADSVKGRFTISRDNAKNTVYLQMNSLKPEDTAVYYCAKRGYYRSRRYDYWGQGTQVTVSS | high polyreactivity
QVQLVESGGGLVQAGGSLRLSCAASGSTFYRYAMGWYRQAPGKERELVAAISYRGGSTYYADSVKGRFTISRDNAKNTVYLQMNSLKPEDTAVYYCNKRSTRRYDYWGQGTQETVSS | high polyreactivity
QVQLVESGGGLVQAGGSLRLSCAASGSTFYRYAMGWYRQAPGKERELVAGISSSGGSTYYADSVKGRFTISRDNAKNTVYLQMNSLKPEDTAVYYCAAVGQWGYGYWGQGTQVTVSS | high polyreactivity

Sequence | polyreactivity (PSR sort gate)
QVQLVESGGGLVQAGGSLRLSCAASGSTFYRYAMGWYRQAPGKERELVATISGGGRTNYADSVKGRFTISRDNAKNTVYLQMNCLKPEDTAVYYCAARGYTGRFSRVNVPFYYWGQGTQVTVSS | high polyreactivity
QVQLVESGGGLVQAGGSLRLSCAASGSTFYSNAMGWDRQAPGKERELVASISWSSGSTYYADSVKGRFTISRDNAKNTVYLQMNSLKPEDTAVYYCATDAGGPYRFGYWGQGTQVTVSS | low polyreactivity
QVQLVESGGGLVQAGGSLRLSCAASGSTFYSNAMGWYRQAPGKERELVAGIDTSDGSTNYADSVKGRITISRDNAKNTVYLQMNSLKPEDTAVYYCNTTLRDSRQYVDRAPYTRYDYWGQGTQVTVSS | low polyreactivity
QVQLVESGGGLVQAGGSLRLSCAASGSTFYSNPMGWSRQAPGKESEFVAAISWSGGSTYYADSVKGRFTISRDNAKNSVYFQMYSLKPQDTAVYSCAKKPYYYAYGGYGYWGQGNQVTVSS | high polyreactivity
QVQLVESGGGLVQAGGSLRLSCAASGSTFYSYAMGWYRQAPGKERELVAAIDWSGDNTNYADSVKGRFTISRDNAKNTVYLQMNSLKPEDTAVYYCAADWYYTRRRYNYWGQGTQVTVSS | low polyreactivity
QVQLVESGGGLVQAGGSLRLSCAASGSTFYSYAMGWYRQAPGKERELVAAIDWSGTSTYYADSVKGRFTISRDNAKNTVYLQMNSLKPEDTAVYYCAARYTRGGSGPDYNYWGQGTQVTVSS | high polyreactivity
QVQLVESGGGLVQAGGSLRLSCAASGSTFYSYAMGWYRQAPGKERELVAAISSSGGRTRYADSVKGRFTISRDNAKNTVYLQMNSLKPEDTAVYYCAARNRVRVGTRIGRIDEDYWGQGTQVTVSS | high polyreactivity
QVQLVESGGGLVQAGGSLRLSCAASGSTFYTNAKGWYRQAPGKEREFVAAISWAGSSTYADSVKGRFTISRDNAKTTVYLQMHSLKPEDTAVYYCNADVLDGGYDYWGQGTQVTVSS | low polyreactivity
QVQLVESGGGLVQAGGSLRLSCAASGSTFYTNAMGWYRQAPGKEREFVAAISWSGSSTYADSVKGRFTISRDNAKNTVYLQMNSLKPEDTAVYYCSADWFKLRTDYYWGQGTQVTVSS | low polyreactivity
QVQLVESGGGLVQAGGSLRLSCAASGSTFYTYAMGWSRPAPGKERELVAAINWIGDSTYYADSVKGRFTISRDNAKNTVYLQMNSLKPEDTAVYYCAADFTLGSRTEGLHMDYWGQGTQVTVSS | high polyreactivity
QVQLVESGGGLVQAGGSLRLSCAASGSTFYTYTAMGWYRQAPGKERELVAAITWRGGSTYYADSVKGRFTISRDNAKNTVYLHMNRLKPEDTSGYYCAADCVMTWWAYDYWGQGTQVTVSS | high polyreactivity
QVQLVESGGGLVQAGGSLRLSCAASGSTFYTYTMGWYRPGPGKEMELVAAISSSGGDTYYADSVKGRFTISRDNAKNTVYLQMNSLKPEDTAVYYCAALGAFPSLEFDYWGQGTQVTVSS | low polyreactivity
QVQLVESGGGLVQAGGSLRLSCAASGSTFYVNAMGSYRQAPGQERELVAAIRSSAGNTTYADSVKGRFTISRDNAKNTVYLQMNSLKPEETAVYYCAADSRPYLRDYWGQGTQVTVSS | low polyreactivity
QVQLVESGGGLVQAGGSLRLSCAASGSTFYVNAMGWYRQAPGKDRELVAVISTGGSTYYADSVKGRFTISRDNAKNTVYLQMNSLKPEDTAVYYCAKRDLPDRSGTPNVIPFDYWGQGTQVTVSS | low polyreactivity
QVQLVESGGGLVQAGGSLRLSCAASGSTFYVNAMGWYRQAPGKERELVAAISRRGGSTYYADSVKGRFTISRDNAKNTVYLQMNSLKPEDTAVYYCNVVPVWRPYSLINWQKHFGYWGQGTQVTVSS | high polyreactivity
QVQLVESGGGLVQAGGSLRLSCAASGSTFYVNAMGWYRQAPGKERELVAGISYNAGSTYYADSVKGRFTISRDNAKNTVSLQMNSLKPEDTAVYYCAAYPYWRWYGYLGYDYWGQGTQVTVSS | low polyreactivity
QVQLVESGGGLVQAGGSLRLSCAASGSTFYVNAMGWYRQTPGKERELVATIPSGSITDYADSVKGRFTISRDNAKNTVYLQMNSLKPEDTAVYYCAKTYVQEHGVDYWGQGTQVTVSS | low polyreactivity
QVQLVESGGGLVQAGGSLRLSCAASGSTFYVNVMGWYRQAPGKERELVADISNDGSTHYADSVKGRFTISRDTAKNTVYLQMNSLKPEDTAVYYCNAEEIDEASYAYPPLEYDYWGQGTQVTVSS | low polyreactivity
QVQLVESGGGLVQAGGSLRLSCAASGSTFYVYAMGWYRQAPGKERELVAAITVRGGSTYYADSVKGRFTISRDNAKNTVYLQMNSLKPEDTAVYYCAVDVSKPYYEMDYWGQGTQVTVSS | high polyreactivity
QVQLVESGGGLVQAGGSLRLSCAASGSTFYVYDMGWYRQAPGKEREFVAVISWNGGSTYYADSVKGRFTISRDNAKNTVYLQMNSLKPEDTAVYYCATRRSSGRVTYDYWGQGTQVTVSS | low polyreactivity
QVQLVESGGGLVQAGGSLRLSCAASGSTFYVYPMGWYRQAPGKERELVAAITRGGTTYYADSVKGRFTISRDNAKNTVYLQMNSLKPEDTAVYYCAKYLTGAADLVPEYDYWGQGTQVTVSS | low polyreactivity
